Data taken from paper PMC6487263, “Kinetic and structural analysis of human ALDH9A1” (Bioscience Reports, 2019).

Experiments:
Experiment in all cases: purified protein
Assay type in all cases: biochemical, Homo sapiens
Settings in all cases: 1 mM NAD+, 150 mM sodium pyrophosphate pH 7.5, 30 °C
purified protein [1] = substrate: NCCCC=O
purified protein [2] = substrate: N=C(N)NCCCC=O
purified protein [3] = substrate: C[N+](C)(C)CCCC=O
purified protein [4] = substrate: O=CCc1ccc(O)c(O)c1
purified protein [5] = substrate: NCCC=O

B1: human ALDH9A1 (HsALDH9A1) (Homo sapiens) (protein)
chain: MSTGTFVVSQPLNYRGGARVEPADASGTEKAFEPATGRVIATFTCSGEKEVNLAVQNAKAAFKIWSQKSGMERCRILLEAARIIREREDEIATMECINNGKSIFEARLDIDISWQCLEYYAGLAASMAGEHIQLPGGSFGYTRREPLGVCVGIGAWNYPFQIASWKSAPALACGNAMVFKPSPFTPVSALLLAEIYSEAGVPPGLFNVVQGGAATGQFLCQHPDVAKVSFTGSVPTGMKIMEMSAKGIKPVTLELGGKSPLIIFSDCDMNNAVKGALMANFLTQGQVCCNGTRVFVQKEILDKFTEEVVKQTQRIKIGDPLLEDTRMGPLINRPHLERVLGFVKVAKEQGAKVLCGGDIYVPEDPKLKDGYYMRPCVLTNCRDDMTCVKEEIFGPVMSILSFDTEAEVLERANDTTFGLAAGVFTRDIQRAHRVVAELQAGTCFINNYNVSPVELPFGGYKKSGFGRENGRVTIEYYSQLKTVCVEMGDVESAF
notes: full-length 494-residue protein, His-tag kept (pCDFDuet, BamHI/XhoI), recombinant from E. coli; silent polymorphism at Ile110 codon
- Km (purified protein [1]): 67 ± 7 µM
- Vmax (purified protein [1]): 0.108 µmol/min/mg
- Km (purified protein [2]): 21 ± 2 µM
- Vmax (purified protein [2]): 0.114 µmol/min/mg
- Km (purified protein [3]): 6 ± 1 µM
- Vmax (purified protein [3]): 0.588 µmol/min/mg
- Km (purified protein [4]): 11 ± 1 µM
- Vmax (purified protein [4]): 0.03 µmol/min/mg
- Km (purified protein [5]): 56 ± 7 µM
- Vmax (purified protein [5]): 0.108 µmol/min/mg
